Results taken from patent US20220332804A1 (CSL INNOVATION, published 2022).

Tests used:
Assay in all cases: SPR, KD relative to WT C2;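 note: biacore SPR at 37 °C, anti-C2 mAbs captured via immobilised goat anti-human IgG, C2 alanine or serine surface mutants as analytes, 1:1 model fitted, double-referenced sensograms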
[1] = target: T1, human C2 S473A (human, UniProt P06681 21-752)
T1 sequence: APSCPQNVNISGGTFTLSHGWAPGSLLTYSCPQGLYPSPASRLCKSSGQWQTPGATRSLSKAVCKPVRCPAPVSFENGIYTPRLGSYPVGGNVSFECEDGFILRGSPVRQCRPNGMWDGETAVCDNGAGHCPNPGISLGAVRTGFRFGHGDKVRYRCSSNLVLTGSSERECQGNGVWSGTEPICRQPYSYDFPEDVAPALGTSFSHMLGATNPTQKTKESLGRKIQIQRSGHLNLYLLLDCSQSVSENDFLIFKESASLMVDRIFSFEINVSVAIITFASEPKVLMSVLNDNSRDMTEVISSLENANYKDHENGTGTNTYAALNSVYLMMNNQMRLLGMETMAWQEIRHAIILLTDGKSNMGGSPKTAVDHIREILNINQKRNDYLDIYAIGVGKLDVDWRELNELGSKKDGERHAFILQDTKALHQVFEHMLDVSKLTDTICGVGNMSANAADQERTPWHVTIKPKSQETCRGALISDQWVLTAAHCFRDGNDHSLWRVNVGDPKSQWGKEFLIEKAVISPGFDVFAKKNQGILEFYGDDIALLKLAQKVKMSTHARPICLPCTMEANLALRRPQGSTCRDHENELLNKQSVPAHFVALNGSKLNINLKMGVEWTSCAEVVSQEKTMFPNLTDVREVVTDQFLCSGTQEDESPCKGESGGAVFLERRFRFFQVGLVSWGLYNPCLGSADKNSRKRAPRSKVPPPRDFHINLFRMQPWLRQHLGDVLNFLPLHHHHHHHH

[2] = target: T2, human C2 N424A (human, UniProt P06681 21-752)
T2 sequence: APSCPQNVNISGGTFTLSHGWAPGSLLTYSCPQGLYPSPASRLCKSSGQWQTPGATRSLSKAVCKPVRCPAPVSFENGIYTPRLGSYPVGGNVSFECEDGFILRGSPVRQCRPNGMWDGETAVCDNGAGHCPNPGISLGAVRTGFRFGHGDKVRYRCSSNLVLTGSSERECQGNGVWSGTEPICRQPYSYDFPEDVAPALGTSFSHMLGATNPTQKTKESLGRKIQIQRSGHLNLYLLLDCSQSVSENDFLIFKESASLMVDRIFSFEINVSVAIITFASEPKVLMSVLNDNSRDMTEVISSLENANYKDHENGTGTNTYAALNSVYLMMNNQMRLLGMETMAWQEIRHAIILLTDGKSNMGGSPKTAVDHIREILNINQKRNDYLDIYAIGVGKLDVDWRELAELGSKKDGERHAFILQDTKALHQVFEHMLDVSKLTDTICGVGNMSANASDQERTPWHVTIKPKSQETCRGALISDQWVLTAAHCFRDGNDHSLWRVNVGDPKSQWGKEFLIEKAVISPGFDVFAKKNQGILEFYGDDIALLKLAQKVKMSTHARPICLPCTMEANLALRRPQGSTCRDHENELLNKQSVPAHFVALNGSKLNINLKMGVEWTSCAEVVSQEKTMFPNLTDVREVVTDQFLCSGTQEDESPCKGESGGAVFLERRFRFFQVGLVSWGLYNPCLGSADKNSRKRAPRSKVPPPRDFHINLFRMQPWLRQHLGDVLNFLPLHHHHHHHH

[3] = target: T3, human C2 R688A (human, UniProt P06681 21-752)
T3 sequence: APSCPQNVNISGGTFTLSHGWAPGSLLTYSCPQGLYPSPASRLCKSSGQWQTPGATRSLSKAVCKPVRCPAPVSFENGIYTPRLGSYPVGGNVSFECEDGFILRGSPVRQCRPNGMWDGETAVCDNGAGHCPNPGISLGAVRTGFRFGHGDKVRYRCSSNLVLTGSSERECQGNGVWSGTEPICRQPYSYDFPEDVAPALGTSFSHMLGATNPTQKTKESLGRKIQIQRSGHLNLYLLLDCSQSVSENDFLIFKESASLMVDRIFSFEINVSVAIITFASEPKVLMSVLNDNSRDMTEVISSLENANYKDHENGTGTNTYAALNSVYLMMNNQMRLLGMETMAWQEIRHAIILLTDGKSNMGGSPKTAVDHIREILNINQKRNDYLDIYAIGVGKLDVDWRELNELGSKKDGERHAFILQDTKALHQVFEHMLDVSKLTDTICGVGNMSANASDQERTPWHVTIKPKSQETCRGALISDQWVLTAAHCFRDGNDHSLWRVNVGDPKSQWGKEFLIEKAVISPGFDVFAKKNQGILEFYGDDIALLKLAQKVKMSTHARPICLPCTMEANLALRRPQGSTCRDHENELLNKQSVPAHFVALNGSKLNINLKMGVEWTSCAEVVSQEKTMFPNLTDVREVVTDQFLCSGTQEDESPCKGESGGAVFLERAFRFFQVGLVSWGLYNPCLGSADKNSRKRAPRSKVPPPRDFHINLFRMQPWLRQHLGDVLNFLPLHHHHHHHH

[4] = target: T4, human C2 R519A (human, UniProt P06681 21-752)
T4 sequence: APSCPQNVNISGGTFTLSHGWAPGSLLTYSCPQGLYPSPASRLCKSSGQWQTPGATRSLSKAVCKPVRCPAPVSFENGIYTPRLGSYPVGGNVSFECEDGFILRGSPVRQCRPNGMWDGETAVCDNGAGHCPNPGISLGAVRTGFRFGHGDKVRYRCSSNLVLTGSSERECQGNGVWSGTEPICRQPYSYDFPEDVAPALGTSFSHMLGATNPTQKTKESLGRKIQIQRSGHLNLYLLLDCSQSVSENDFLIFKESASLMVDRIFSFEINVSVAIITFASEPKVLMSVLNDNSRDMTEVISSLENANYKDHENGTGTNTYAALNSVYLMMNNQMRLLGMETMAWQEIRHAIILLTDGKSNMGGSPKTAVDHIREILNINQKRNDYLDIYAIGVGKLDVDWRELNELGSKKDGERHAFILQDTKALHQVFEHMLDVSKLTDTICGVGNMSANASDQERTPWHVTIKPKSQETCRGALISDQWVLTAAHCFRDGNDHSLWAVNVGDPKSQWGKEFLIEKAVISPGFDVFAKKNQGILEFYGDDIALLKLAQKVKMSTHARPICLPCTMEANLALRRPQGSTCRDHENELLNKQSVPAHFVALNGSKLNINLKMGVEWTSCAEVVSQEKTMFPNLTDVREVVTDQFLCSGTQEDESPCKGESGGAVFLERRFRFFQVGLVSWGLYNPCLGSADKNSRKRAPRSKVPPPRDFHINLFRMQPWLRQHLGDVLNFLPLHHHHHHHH

B1: RF16-226 (antibody, human IgG4 S228P, lambda)
heavy: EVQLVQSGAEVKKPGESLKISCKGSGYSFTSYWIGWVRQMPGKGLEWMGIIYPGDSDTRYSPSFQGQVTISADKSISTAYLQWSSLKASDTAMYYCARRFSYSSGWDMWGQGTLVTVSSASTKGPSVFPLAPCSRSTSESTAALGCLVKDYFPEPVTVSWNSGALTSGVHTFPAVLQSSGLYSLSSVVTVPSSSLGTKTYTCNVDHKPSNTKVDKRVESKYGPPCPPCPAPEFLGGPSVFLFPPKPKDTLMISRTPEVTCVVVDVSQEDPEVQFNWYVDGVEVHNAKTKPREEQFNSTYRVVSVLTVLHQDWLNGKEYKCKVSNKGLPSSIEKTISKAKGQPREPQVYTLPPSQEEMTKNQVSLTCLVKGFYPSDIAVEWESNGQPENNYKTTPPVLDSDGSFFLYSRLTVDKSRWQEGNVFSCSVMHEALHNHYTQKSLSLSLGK
light: SYELTQPPSVSVSPGQTARITCSGDALTSKYVAWYQQKSGLAPLLVIYEDTRRPSGIPAKFSGSSSGSVATLTISGAHGDDEADYYCYSTDASGHQRVFGGGTKLTVLSQPKAAPSVTLFPPSSEELQANKATLVCLISDFYPGAVTVAWKADGSPVKAGVETTKPSKQSNNKYAASSYLSLTPEQWKSHRSYSCQVTHEGSTVEKTVAPTECS
notes: pH-dependent anti-C2 antibody from a phage display library; also called WT
Fold diff [1]: 1 fold | Fold diff [2]: 0 fold | Fold diff [3]: 3 fold | Fold diff [4]: 1 fold
